{"source": "paper PMC5603731", "about": "“The SET1 Complex Selects Actively Transcribed Target Genes via Multivalent Interaction with CpG Island Chromatin” (Cell Reports, 2017)", "key": {"mouse C127 cells": {"test_system": "mouse C127 cells", "test": "FRAP, nuclear mobility of GFP fusion proteins", "type": "cell-based", "conditions": "compared to wild-type GFP-CFP1", "experimental": "FRAP experiments were performed on an UltraView spinning disk microscope (Perkin Elmer) equipped with an EM-CCD camera (Hamamatsu) using a 60x/1.4NA oil objective. 50 pre-bleach and 1,000 post-bleach images were captured at a rate of 8 frames per second (fps) (Figures 1B and C) after bleaching a circular diffraction limited spot of ∼2.5 μm diameter using a 488-nm laser line at 100% transmission. Alternatively, to capture the rapid recovery of the P/C/S^∗ mutant effectively, we used an acquisition rate of 13 fps (Figures 1E and F). FRAP curves were calculated in MATLAB, normalizing for the initial conditions (brightness of the cell and brightness of the spot) and corrected for acquisition photobleaching over time ([Mueller et al., 2012]). Half recovery times (t1/2) were calculated using a biexponential fit. Briefly, this involved deriving t1/2 values from individual cells (Figures S1F and S1G) and then collecting the distribution of t1/2 values across biological triplicates for the same transgene (Figures S1H and S1I). To compare the dynamics of individual GFP-CFP1 transgenes, a Student’s t test was then used to calculate the probability (p) that there was no difference between the wild-type and mutant versions of CFP1.\nSupplementary Experimental Procedures: […]\nFluorescence recovery after photobleaching (FRAP) […]"}, "CFP1 PHD domain [1]": {"target": "CFP1 PHD domain", "test": "other fluorescence titration; intrinsic fluorescence of the CFP1 PHD finger, excitation 280 nm, emission 320-380 nm; increasing concentrations of histone peptide; 20 mM Tris-HCl pH 6.8, 100 mM NaCl, 2.5 mM DTT; 25°C"}, "CFP1 PHD domain [2]": {"target": "CFP1 PHD domain", "test": "NMR titration; 1H,15N HSQC of 0.1-0.2 mM uniformly 15N-labelled CFP1 PHD finger; histone tail peptides added stepwise; 20 mM Tris-HCl pH 6.8, 100 mM NaCl, 2.5 mM DTT, 7% D2O; 298 K"}}, "note": "No end group written: not given here."}
{"molecule": "GFP-SET1A: GFP-tagged wild-type SET1A", "values": [{"measurement": "Nuclear mobility (FRAP)", "setting": "mouse C127 cells", "value": "slightly less mobile than GFP-CFP1"}]}
{"molecule": "ARTK(dimethyl)QTARKSTG", "note": "[H3K4me2 peptide]", "values": [{"measurement": "Kd", "setting": "CFP1 PHD domain [1]", "value": 9.1, "unit": "µM"}]}
{"molecule": "ARTK(Me)QTARKSTG", "note": "[H3K4me1 peptide]", "values": [{"measurement": "Kd", "setting": "CFP1 PHD domain [1]", "value": 64, "unit": "µM"}]}
{"molecule": "ARTK(trimethyl)QTARKSTG", "note": "[H3K4me3 peptide]", "values": [{"measurement": "Kd", "setting": "CFP1 PHD domain [1]", "value": 1.3, "unit": "µM"}]}
{"molecule": "ARTKQTARKSTG (here or on the partner: zinc-bound PHD finger; 15N-labelled for NMR. Construct limits are not in the text shown, so the UniProt PHD-type zinc finger limits are used; human is inferred from the NP_001095124.1 alignment and th)", "note": "[unmodified H3K4me0 peptide]", "values": [{"measurement": "Kd", "setting": "CFP1 PHD domain [2]", "value": 373, "unit": "µM"}]}
